Results taken from paper PMC6888414, “Two Homologous Enzymes of the GalU Family in Rhodococcus opacus 1CP—RoGalU1 and RoGalU2” (International Journal of Molecular Sciences, 2019).
Values belong to the molecule of their own block, whether it stands above or below them.

Experiments:
[1] = molecular target: UDP-glucose pyrophosphorylase RoGalU2 of Rhodococcus opacus 1CP (Rhodococcus opacus 1CP); assay: SEC; Superdex 200 10/300 GL, non-denaturing, 50 mM Hepes pH 7.0, 1 mM magnesium chloride; RoGalU2 at 0.2 and 2.0 mg/mL, in duplicates; mass from a calibration with standard proteins
[2] = substrate: O=P(O)(O)O[C@H]1O[C@H](CO)[C@@H](O)[C@H](O)[C@H]1O; assay: HPLC of UDP-glucose formation, initial rates; assay type: biochemical, Rhodococcus opacus; conditions: 1.5 mM UTP, 1 mM MgCl2, 50 mM Hepes pH 7.4, 42 °C, glucose 1-phosphate 0.05–10 mM, Michaelis-Menten fit of the low range only, non-Michaelis behaviour above 10 mM
Source text: (§1) HPLC of UDP-glucose formation, initial rates on RoGalU2

[3] = substrate: O=c1ccn([C@@H]2O[C@H](COP(=O)(O)OP(=O)(O)OP(=O)(O)O)[C@@H](O)[C@H]2O)c(=O)[nH]1; assay: HPLC of UDP-glucose formation, initial rates; assay type: biochemical, Rhodococcus opacus; conditions: 250 mM glucose 1-phosphate, 1 mM MgCl2, 50 mM Hepes pH 7.4, 42 °C, UTP 0.01–5 mM, Yano and Koga substrate inhibition fit
Source text: as §1

- stoichiometry N [1]: 6
Molecule: UDP-glucose pyrophosphorylase RoGalU2 of Rhodococcus opacus 1CP (enzyme)

B1: RoGalU2 (Rhodococcus opacus) (protein)
chain: MTDAAPHTASAFRTAVVPAAGMGTRFLPATKTVPKELLPVVDTPGIELVAGEAADSGAGRLVIVTSPGKDGVVAHFVEDLVLESKLEASGKYHLLEKVRKAPGLLEVESVIQDEPLGLGHAVGCAESVLDDDEDAIAVLLPDDLVMPRGVLETMSRVRRKRGGTVLCAIDVPKDQVSAYGVFEVETVPDATNPDVLKVIGMVEKPAIEDAPSTFAAAGRYLLDRAIFDALRRIEPGAGGELQLTDAIALLIKEGHPVHVVVHRGTRHDLGNPGGYLRAAVDFALDMEEYGPSLREWLIDRLKRTDS
notes: full length, N-terminal His10 tag (pET16bP), codon-optimized gene in E. coli BL21(DE3) pLysS, HisTrap purified; 34 kDa subunit, hexamer by SEC (188 kDa)
- Km [2]: 900 µM
- kcat [2]: 3.7 s⁻¹
- kcat/Km [2]: 4000 M⁻¹ s⁻¹
- Km [3]: 510 µM
- kcat [3]: 96.2 s⁻¹
- kcat/Km [3]: 190000 M⁻¹ s⁻¹
